Laboratory results as given in the supplement of paper PMC7125110.
± gives the standard error. Variants at the floor of the assay were thinned out.

B1: glmS ribozyme (parent)
chain: AUAAAAGCGCCAGAACUACAGAAAUGUAGUUGACGAGGAGGAGGUUUAUCGAAUUUUCGGCGGAUGCCUCCAAA

Key:
Details in all cases: with glucosamine-6-phosphate
glucosamine-6-phosphate [1] = variants of: B1; assay: self-cleavage kobs at 40 uM GlcN6P; higher = faster cleavage; RNA array
Method in brief: (§1)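 Tiles bearing barcoded ribozyme variants, transcribed in situ by E. coli RNA polymerase on sequenced MiSeq chips, were imaged over ~14 h at 37 °C using a hybridised Cy3 probe. Glucosamine-6-phosphate was supplied at 40 μM to 10 mM in HEPES/KCl/Mg(OAc)2 buffer. kobs came from one- or two-exponential decay fits to normalised per-tile medians, and weighted Michaelis–Menten fits then provided kcat and KM.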

glucosamine-6-phosphate [2] = variants of: B1; assay: self-cleavage kobs at 10000 uM GlcN6P; higher = faster cleavage; RNA array
Method in brief: as §1

glucosamine-6-phosphate [3] = variants of: B1; assay: self-cleavage kobs at 160 uM GlcN6P; higher = faster cleavage; RNA array
Method in brief: as §1

glucosamine-6-phosphate [4] = variants of: B1; assay: self-cleavage kobs at 640 uM GlcN6P; higher = faster cleavage; RNA array
Method in brief: as §1

glucosamine-6-phosphate [5] = variants of: B1; assay: self-cleavage kobs at 2500 uM GlcN6P; higher = faster cleavage; RNA array
Method in brief: as §1

Row | Variant | self-cleavage kobs at 40 uM GlcN6P (glucosamine-6-phosphate [1]) | self-cleavage kobs at 10000 uM GlcN6P (glucosamine-6-phosphate [2]) | self-cleavage kobs at 160 uM GlcN6P (glucosamine-6-phosphate [3]) | self-cleavage kobs at 640 uM GlcN6P (glucosamine-6-phosphate [4]) | self-cleavage kobs at 2500 uM GlcN6P (glucosamine-6-phosphate [5])
1 | C10U A36C U56C | < 1e-05 s⁻¹ |  |  |  | 
2 | U57G C61U | < 1e-05 s⁻¹ |  |  |  | 
3 | A36U U47G C70G | 6.62e-05 ± 2.4e-05 s⁻¹ | 4.91e-05 ± 1.4e-05 s⁻¹ |  |  | 
4 | A6G C50G A53G C58U | 0.000224 ± 9.8e-05 s⁻¹ |  |  |  | 
5 | C10A U46G U47G C50G C58G C68U | 0.000116 ± 2.2e-05 s⁻¹ | 0.000242 ± 4.3e-05 s⁻¹ |  |  | 
6 | G35A C70U | < 1e-05 s⁻¹ | < 1e-05 s⁻¹ | < 1e-05 s⁻¹ | < 1e-05 s⁻¹ | < 1e-05 s⁻¹
7 | U30A A33U U56C | < 1e-05 s⁻¹ |  |  |  | 
8 | A33G A64C | < 1e-05 s⁻¹ | < 1e-05 s⁻¹ | < 1e-05 s⁻¹ | < 1e-05 s⁻¹ | < 1e-05 s⁻¹
9 | C34G A42G | < 1e-05 s⁻¹ | < 1e-05 s⁻¹ |  | < 1e-05 s⁻¹ | < 1e-05 s⁻¹
10 | G51C U57C C70G | < 1e-05 s⁻¹ |  |  |  | 
11 | G43A A64G | < 1e-05 s⁻¹ | 4.35e-05 ± 1.7e-05 s⁻¹ | < 1e-05 s⁻¹ |  | 
12 | G7U U56A | < 1e-05 s⁻¹ | < 1e-05 s⁻¹ | < 1e-05 s⁻¹ | < 1e-05 s⁻¹ | 
13 | C16G A39G G51U U55A | < 1e-05 s⁻¹ |  |  | < 1e-05 s⁻¹ | 
14 | G37C G44A | < 1e-05 s⁻¹ | < 1e-05 s⁻¹ | < 1e-05 s⁻¹ | < 1e-05 s⁻¹ | 
15 | U30C U45A U47C C50U G60U C68U | < 1e-05 s⁻¹ |  |  |  | 
16 | A6G A12G A64U C70U | < 1e-05 s⁻¹ | < 1e-05 s⁻¹ |  |  | 
17 | A15U C61G | < 1e-05 s⁻¹ | < 1e-05 s⁻¹ |  |  | 
18 | U30A U49C U55A | < 1e-05 s⁻¹ |  |  |  | 
19 | A14U G41C G43A G63U C67A C70A | < 1e-05 s⁻¹ | < 1e-05 s⁻¹ |  |  | 
20 | U55A C67A | 0.000444 ± 0.00015 s⁻¹ | 0.00563 ± 0.0018 s⁻¹ |  | 0.00115 ± 0.00052 s⁻¹ | 
21 | G38A A48U | < 1e-05 s⁻¹ | < 1e-05 s⁻¹ |  | < 1e-05 s⁻¹ | 
22 | A36C U49C U65A | < 1e-05 s⁻¹ | < 1e-05 s⁻¹ |  |  | 
23 | A12U G32A A33U | < 1e-05 s⁻¹ |  |  | < 1e-05 s⁻¹ | 
24 | A42U G60A | < 1e-05 s⁻¹ | < 1e-05 s⁻¹ | < 1e-05 s⁻¹ |  | 
25 | A48C C58U | < 1e-05 s⁻¹ | < 1e-05 s⁻¹ | < 1e-05 s⁻¹ | < 1e-05 s⁻¹ | 

Row | Variant | self-cleavage kobs at 40 uM GlcN6P (glucosamine-6-phosphate [1]) | self-cleavage kobs at 10000 uM GlcN6P (glucosamine-6-phosphate [2]) | self-cleavage kobs at 160 uM GlcN6P (glucosamine-6-phosphate [3]) | self-cleavage kobs at 640 uM GlcN6P (glucosamine-6-phosphate [4]) | self-cleavage kobs at 2500 uM GlcN6P (glucosamine-6-phosphate [5])
26 | C16A U55A G63U | < 1e-05 s⁻¹ |  |  |  | 
27 | U57A U65C | < 1e-05 s⁻¹ |  |  | < 1e-05 s⁻¹ | 
28 | G32C A33U | < 1e-05 s⁻¹ |  | < 1e-05 s⁻¹ | < 1e-05 s⁻¹ | < 1e-05 s⁻¹
29 | G7C G44C A64U | < 1e-05 s⁻¹ | < 1e-05 s⁻¹ |  |  | 
30 | G41U A48U C68A | < 1e-05 s⁻¹ |  |  |  | < 1e-05 s⁻¹
31 | A53U U54A C68U | 0.00036 ± 9.6e-05 s⁻¹ | 0.013 ± 0.0042 s⁻¹ |  |  | 
32 | A6U C58U | < 1e-05 s⁻¹ | < 1e-05 s⁻¹ | < 1e-05 s⁻¹ | < 1e-05 s⁻¹ | < 1e-05 s⁻¹
33 | G38A G40A | < 1e-05 s⁻¹ | < 1e-05 s⁻¹ | < 1e-05 s⁻¹ | < 1e-05 s⁻¹ | < 1e-05 s⁻¹
34 | A12U U30G G51C | < 1e-05 s⁻¹ |  |  | < 1e-05 s⁻¹ | < 1e-05 s⁻¹
35 | G29C A33C U69A | < 1e-05 s⁻¹ |  |  |  | 
36 | U56A C68U | 0.000143 ± 2.2e-05 s⁻¹ | 0.00472 ± 0.00088 s⁻¹ | 0.000404 ± 8.3e-05 s⁻¹ | 0.000955 ± 0.00014 s⁻¹ | 0.00101 ± 0.00018 s⁻¹
37 | A15G C34A | < 1e-05 s⁻¹ |  | < 1e-05 s⁻¹ | < 1e-05 s⁻¹ | 
38 | A48C A52U C70A | < 1e-05 s⁻¹ |  |  |  | 
39 | A6G U31C G41U A52U | < 1e-05 s⁻¹ | < 1e-05 s⁻¹ |  |  | 
40 | G13C U57C | < 1e-05 s⁻¹ |  | < 1e-05 s⁻¹ | < 1e-05 s⁻¹ | 
41 | G51U G62C | < 1e-05 s⁻¹ | < 1e-05 s⁻¹ |  | < 1e-05 s⁻¹ | < 1e-05 s⁻¹
42 | A33G C50U C67A | < 1e-05 s⁻¹ |  |  |  | 
43 | A12U A36G A52U C71G | < 1e-05 s⁻¹ | < 1e-05 s⁻¹ |  |  | < 1e-05 s⁻¹
44 | A6G A12C C71A | < 1e-05 s⁻¹ |  |  |  | 
45 | C10G C16U | < 1e-05 s⁻¹ |  | < 1e-05 s⁻¹ |  | 
46 | C10U G41U | < 1e-05 s⁻¹ | < 1e-05 s⁻¹ | < 1e-05 s⁻¹ | < 1e-05 s⁻¹ | < 1e-05 s⁻¹
47 | U56C C61G | < 1e-05 s⁻¹ | < 1e-05 s⁻¹ |  |  | < 1e-05 s⁻¹
48 | C34G G51C | < 1e-05 s⁻¹ | < 1e-05 s⁻¹ |  | < 1e-05 s⁻¹ | 
49 | C10U U31A A53C U55G | < 1e-05 s⁻¹ |  |  |  | 
50 | G35C G66C | < 1e-05 s⁻¹ | < 1e-05 s⁻¹ | < 1e-05 s⁻¹ | < 1e-05 s⁻¹ | < 1e-05 s⁻¹
